Assay results published in the supplement of paper PMC12764529.
± gives the half width of the 95% confidence interval.

Assays:
[1] = folding stability dG unfold from trypsin proteolysis; higher = more stable
Summary of the method: (§1)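 Mini-proteins designed to be under 80 residues and free of cysteine were carried in a PA-tagged cDNA display construct and digested with trypsin and with chymotrypsin. Each protease was applied at 11 threefold-diluted concentrations, alongside a no-protease condition, before sequencing. K50 came from Bayesian fitting of the sequencing counts, and unfolding free energy was obtained by comparing it with a sequence-predicted unfolded-state K50 and a shared folded-state K50, for each protease separately or for both together. Designs were retained only if their AlphaFold2 dimer inter-PAE exceeded 15.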

[2] = folding stability dG unfold from chymotrypsin proteolysis; higher = more stable
Summary of the method: as §1

[3] = folding stability dG unfold (combined trypsin and chymotrypsin); higher = more stable
Summary of the method: as §1

Sequence | folding stability dG unfold [1] [kcal/mol] | folding stability dG unfold [2] [kcal/mol] | folding stability dG unfold [3] [kcal/mol]
DLDITDPALVPVPERNYPFTVVSLTGPGNGAVTVELTLDGQTVSATVDPSTGTVTFTFPGTGASAVATADPS [r1_125_TrMRF] | 1.69 ± 0.087 | 1.61 ± 0.08 | 1.68 ± 0.12
SAMKEMTAEELAKKLEEELRKLFPDVEIKVEIVEVKEDYVVIKVEITVRLKKPDGKEVEFKLELVLKVDSAG [r14_187_TrROS_Hall] | 3.1 ± 0.41 | 3.55 ± 0.15 | 3.4 ± 0.32
SAGGSAGGSAGGSSIEELRRSPEVEVEVSTEKLPNGKTVTTVTLTPPDGVPTTIVLPEGSAGGSAGGSAGGS [r4_70_JUSTAS] | 0.266 ± 0.075 | 1.17 ± 0.041 | 0.978 ± 0.14
SAGGSAGGSMKPGEKVKVEIVSYDEKTKELTIKITYGPKKTKTITIKPKTKEEALEQLKKLLKSAGGSAGGS [r20_167_TrROS_Hall] | 1.93 ± 0.17 | 3.14 ± 0.051 | 2.6 ± 0.27
SAGGSAGGMTITTTENPNSNLTTYDVTIGNTKVTVTVNPNNPGVIKTEGDNDVPVEVVINAVLSSAGGSAGG [r6_197_JUSTAS] | 1.69 ± 0.059 | 0.456 ± 0.043 | 1.21 ± 0.056
SAGGSAGGGVYLNGLLPGGVALLSAPTASGEYTLILISPDNRALIFSYPADTGTPRVAEIDLPTSAGGSAGG [r6_159_TrMRF] | 0.577 ± 0.062 | 1.87 ± 0.065 | 1.49 ± 0.11
SSVEIKLYYDPVTNKYYVEITITAPPGDPAAVEARAAAVREEVKEALKAKGLVPDEIKVTVNVVSPAVPGSA [r9_117_JUSTAS] | 4.09 ± 0.15 | 4.27 ± 0.21 | 4.37 ± 0.21
SAGGMTITVTVPEVPPDRTVTVEVYKPGEKLGSYSGTLNQPKNVTYTFTVPPATITINYSDGKTYPIPLSAG [r5_646_JUSTAS] | 2.22 ± 0.19 | 3.4 ± 0.038 | 3.01 ± 0.25
SEIEIEPLTLDEPVEYRVPEGGFTITAYAAPGPLLVRVRIPGTGEEFEIAVPLGEPNWEEVAEAVVRAIRSA [r9_982_TrMRF] | 1.759 ± 0.015 | 1.27 ± 0.086 | 1.56 ± 0.058
SFFVEFGIEHNPENNYIHINFRIYEPDPNGQWRPSSSIPITIPIKIPPPPVPKIEVPEGAKDPEDAADALSA [r9_888_TrROS] | 2.92 ± 0.2 | 4.43 ± 0.3 | 3.75 ± 0.68
SAGGSAGGSAGGSMPIPYKIDSIEYYPPYPYYTLNVTGPENKPYTIIMSPENLENATIESAGGSAGGSAGGS [r4_51_TrMRF] | 1.43 ± 0.12 | 0.607 ± 0.19 | 1.05 ± 0.23
SAGGSAPVEVRVSVEVLPDGTLRITVEFTLPNGEKLSVEFTIPLAPVPVVDLTSPEALFPALSLLSSAGGSA [r15_1018_TrMRF] | 2.43 ± 0.07 | 2.41 ± 0.069 | 2.42 ± 0.17
SAGGPGWQRIAKWEIPLPNGKDITIEPYYVNPNNNHYMYEIEIGDGKEIPFWVPPGDSPEDALDAILKSAGG [r13_470_TrROS] | -0.194 ± 0.2 | -0.126 ± 0.32 | -0.118 ± 0.16
SAGGSDEVTIDFQVKYNGQPFTVRITIERDPPDGKIEIPVEISYPNPEMREPAREIARNIVRELLNSAGGSA [r2_259_TrROS] | 0.873 ± 0.07 | 1.66 ± 0.17 | 1.32 ± 0.095
SAGGSAGGSAGGSSLYVPGKGYIVERDEAKGYLVIKPIEPDGIVPDAEVFYKPPSVPLISAGGSAGGSAGGS [r4_409_JUSTAS] | -0.879 ± 0.22 | -0.102 ± 0.43 | -0.271 ± 0.19
SAGGSMKVYEFKSLEEIKKAIENLPPNEKYIVIKKNKNGKLEIIIVSKEEEEELKKKGVDFIIKVKSAGGSA [r2_351_TrROS_Hall] | 0.788 ± 0.089 | 2.21 ± 0.07 | 1.95 ± 0.43
SAGGMIPPEKLEEIAKKIAEETEPLGKVVKHLFVDPLEDEVVIIELTVYPGPKKIEIKEIKVYPPEELSAGG [r13_37_TrMRF] | 0.0241 ± 0.084 | 0.251 ± 0.034 | 0.223 ± 0.16
SAMPIDITVEGVERPPDSVVVHLRLDPSVPSDLAVTVKVRGADGTVLEVPAEDRTATLRVPSSDVVVDLSAG [r14_350_JUSTAS] | 0.387 ± 0.11 | 0.912 ± 0.24 | 0.78 ± 0.16
SAGSFKVTLELVLPNGEKLTVENPEDVLAAIKALPSNVTVRVSTPGESETISITGSDGSVFALKIERFKSAG [r5_506_TrMRF] | 1.68 ± 0.045 | 1.97 ± 0.089 | 1.85 ± 0.1
SAGGSAGGSMTSVTTLVETETLTNGNTIVPQLVQITVTLEVPAVPPEEIKPKPAPGDRWTYYSSAGGSAGGS [r12_1031_JUSTAS] | 1.01 ± 0.073 | 1.1 ± 0.16 | 1.12 ± 0.18
SAGGSAGGSAPPNVEIKLTMEPYKPPDGNKYYRIPIEVNKKPWQAKEIADWLQPEGFRIEPSAGGSAGGSAG [r3_157_TrROS] | 0.238 ± 0.18 | 0.152 ± 0.41 | 0.151 ± 0.23

Sequence | folding stability dG unfold [1] [kcal/mol] | folding stability dG unfold [2] [kcal/mol] | folding stability dG unfold [3] [kcal/mol]
SAGGSAGGMPLLPLNKEVRVLSVSYIPPNDVVVVRVKGLDNVESTILIPVSLAKNIPISPDSTLSAGGSAGG [r6_910_TrMRF] | 0.944 ± 0.024 | 0.44 ± 0.059 | 0.733 ± 0.056
SAGGSAGGSAKKKVKIKLEFDKETNTLRIEVEDEDTGEKTEIEITIKLEPPPPPPLPEELKKSAGGSAGGSA [r18_361_TrROS_Hall] | 1.72 ± 0.18 | 1.42 ± 0.22 | 1.73 ± 0.61
SAGGKPPNLKIKIEVIPIPNGYWIITFRIKVPPNEPLKIRFPDFGREIEFPPGDEVTIMILIPPDDLSAGGS [r16_56_TrROS] | 3.64 ± 0.2 | 4.8 ± 0.2 | 4.62 ± 0.35
SAGMKIKVLLVVKADPEELEKLEEILEKIKEESDIKKIEPLAYFPNTGIAVVLVEADPEAFEKILEAAGSAG [r5_193_TrMRF] | 1.78 ± 0.032 | 2.58 ± 0.03 | 2.29 ± 0.095
SAGKVVKISAPIEVLRNIPNVLELYVVGDKVYLVVPNELLVVDLDLPPLVPTVPESVPEELALLGGLLGSAG [r5_2_TrMRF] | 0.728 ± 0.051 | 1.74 ± 0.052 | 1.48 ± 0.13
SAAEKLPDGTIVIKLTEEEYKKLTEEEIEKIKEELKKEYPENVTVEIKPTKAKKIPTEPFEKGEKYNESSAG [r14_312_JUSTAS] | -0.313 ± 0.37 | -0.267 ± 0.37 | < -1
SAGGGMRAVEVTVTLTVPSSTSVEEAVERVKAEFEAAGLEAEPVSVTVTPVPGSVTVTVRLRVLRPPASAGG [r13_351_JUSTAS] | 2.31 ± 0.04 | 3.48 ± 0.049 | 3.19 ± 0.063
SAGGSAGGSNDPPEIKIDYEYNPNNGMYTANITIPNGRKLKITFPGDDAEDAEEQAKNLIEKLSAGGSAGGS [r12_339_TrROS] | 0.539 ± 0.089 | 1.57 ± 0.091 | 1.28 ± 0.38
SAGGSAGGSMEIPANIPIEEFAALIKKKGNFEVKKVGPKTFVIVSKDNKKPLVVKFDAKPGLDSAGGSAGGS [r20_236_TrMRF] | -0.035 ± 0.064 | 0.261 ± 0.15 | 0.183 ± 0.076
SAGGNWPMRIKIEDPGEEKTIPIPITKVEPNPPPGKLMIFWPDGWVLTFDPKNWRIKKIEPMPDPDEMSAGG [r13_636_TrROS] | 0.942 ± 0.084 | 0.822 ± 0.13 | 1.05 ± 0.37
SAGGSAGGSAGKKKLVVVVDPEEPGRVRIYRDGKVIEMSLEELKKLGIDEVVSVEELLAKSAGGSAGGSAGG [r17_88_TrROS_Hall] | 1.03 ± 0.04 | 2.34 ± 0.026 | 1.96 ± 0.09
SARIAEILRELGMEVSVENHPDGMNEITFKFPNGYKIQVHMSPNGIDVQIQPPEGERRTFSIDEIKDLLSAG [r14_578_TrROS] | 2.23 ± 0.071 | 3.14 ± 0.046 | 2.77 ± 0.081
SAGGSAGGSAMTITKTITFSSKEEAEKFVKELEEKGNITITMTYEKLPSGKYKVTVTITKPSAGGSAGGSAG [r3_273_JUSTAS] | 3.62 ± 0.21 | 3.71 ± 0.049 | 3.68 ± 0.2
SAGGPVNKKELVTVPVYYDPETGKFVVKATYPTRPITVPTDETDPVEALARFGTLLEKVTGKPIDTFVGSAG [r5_251_TrMRF] | -0.0487 ± 0.083 | 0.414 ± 0.098 | 0.288 ± 0.04
SAGGSAPKNVTIEFPIMAKVPDPKWAIDEARELARKQGFENTEIENIHVNPGDPNYVMIDVKMTIPSAGGSA [r15_183_TrROS] | 0.249 ± 0.11 | 0.278 ± 0.17 | 0.326 ± 0.24
SAGGSMSPEEKARKLAEELRKKLPPGAKVRIKVEVDGKTYEIEIEPGEEIEFPPGEKVKIVEIEVESAGGSA [r2_391_TrROS_Hall] | 3.12 ± 0.16 | 2.82 ± 0.2 | 2.98 ± 0.3
SAGGSARPLYIKVQIRNPPNGKKKTIEIPIENMPPGDPEYYKEMARSIAEELQEQNGMEIEGIEIYSAGGSA [r15_1013_TrROS] | 0.731 ± 0.06 | 0.023 ± 0.27 | 0.566 ± 0.19
SAGMEYLEVKVTIEPKLPEELREKLKGKKVTVTIIVPKEMSEEEKKKLLEELRDLGVKKVEIKSLEELKSAG [r5_60_TrROS_Hall] | 1.65 ± 0.085 | 1.93 ± 0.077 | 1.89 ± 0.11
SAGMVVLTEPGNGRLVVSELPEELAEEIARELGLPDITPVPPGVPAEEARAAHPALTAALEIPPEVLLSAGG [r19_270_JUSTAS] | -0.149 ± 0.16 | 0.0886 ± 0.032 | 0.0846 ± 0.14
SAGGPRITITYPLPPGDIEKIEKLAKEALDNGDNVDVNIPHPNGWYVTLTVDPPNGKIEEVEWQPPDKSAGG [r13_873_TrROS] | 0.571 ± 0.076 | 0.598 ± 0.061 | 0.499 ± 0.12
SAGGSAGGSAGDFKIKDVEVERPPGRHRVEIRLPGNKKPIKIDNVPTPDDAEDAVKELLKSAGGSAGGSAGG [r11_183_TrROS] | 0.0405 ± 0.073 | 0.975 ± 0.056 | 0.683 ± 0.1
